Measured values taken from patent US20180326084A1 (Genmab, published 2018).

Tests used:
human AXL (full length) [1] = molecular target: T1, human AXL (full length) (human, UniProt P30530 26-894); test: flow cytometry, Gas6 titrated on A431 cells pre-incubated with 10 µg/mL IgG1-AXL-511 (competitor)
T1 construct: also called TH1021-AXL; TH1021-hAXL

human AXL (full length) [2] = molecular target: T1, human AXL (full length); test: flow cytometry, Gas6 titrated on A431 cells pre-incubated with 10 µg/mL IgG1-AXL-154 (competitor)
human AXL (full length) [3] = molecular target: T1, human AXL (full length); test: flow cytometry, Gas6 titrated on A431 cells pre-incubated with 10 µg/mL control antibody b12
human AXL (full length) [4] = molecular target: T1, human AXL (full length); test: flow cytometry, Gas6 titrated on A431 cells pre-incubated with 10 µg/mL IgG1-AXL-613 (competitor)
human AXL (full length) [5] = molecular target: T1, human AXL (full length); test: as above; remark: listed apart in the source
human AXL (full length) [6] = molecular target: T1, human AXL (full length); test: flow cytometry, Gas6 titrated on A431 cells pre-incubated with 10 µg/mL IgG1-AXL-733 (competitor)
human AXL (full length) [7] = molecular target: T1, human AXL (full length); test: flow cytometry, A431 cells pre-incubated with medium only; Gas6 detected with mouse anti-Gas6 and FITC anti-mouse IgG
human AXL (full length) [8] = molecular target: T1, human AXL (full length); test: flow cytometry, Gas6 titrated on A431 cells pre-incubated with 10 µg/mL YW327.6S2 (competitor); value less accurate due to low binding
human AXL (full length) [9] = molecular target: T1, human AXL (full length); test: flow cytometry, Gas6 titrated on A431 cells pre-incubated with 10 µg/mL IgG1-AXL-171 (competitor)
human AXL (full length) [10] = molecular target: T1, human AXL (full length); test: flow cytometry, Gas6 titrated on A431 cells pre-incubated with 10 µg/mL IgG1-AXL-107 (competitor)
human AXL (full length) [11] = molecular target: T1, human AXL (full length); test: flow cytometry, Gas6 titrated on A431 cells pre-incubated with 10 µg/mL IgG1-AXL-726 (competitor)
human AXL (full length) [12] = molecular target: T1, human AXL (full length); test: flow cytometry, Gas6 titrated on A431 cells pre-incubated with 10 µg/mL IgG1-AXL-148 (competitor)
human AXL (full length) [13] = molecular target: T1, human AXL (full length); test: flow cytometry, Gas6 titrated on A431 cells pre-incubated with 10 µg/mL control antibody b12; remark: listed apart in the source
human AXL (full length) [14] = molecular target: T1, human AXL (full length); test: flow cytometry, Gas6 titrated on A431 cells pre-incubated with 10 µg/mL YW327.6S2 (competitor); value less accurate due to low binding; remark: listed apart in the source
human AXL (full length) [15] = molecular target: T1, human AXL (full length); test: flow cytometry, Gas6 titrated on A431 cells pre-incubated with 10 µg/mL IgG1-AXL-107 (competitor); remark: listed apart in the source
human AXL (full length) [16] = molecular target: T1, human AXL (full length); test: flow cytometry, Gas6 titrated on A431 cells pre-incubated with 10 µg/mL IgG1-AXL-183 (competitor)

B1: recombinant human Gas6 (ligand, UniProt Q14393 49-678, looked up)
chain: AFQVFEEAKQGHLERECVEELCSREEAREVFENDPETDYFYPRYLDCINKYGSPYTKNSGFATCVQNLPDQCTPNPCDRKGTQACQDLMGNFFCLCKAGWGGRLCDKDVNECSQENGGCLQICHNKPGSFHCSCHSGFELSSDGRTCQDIDECADSEACGEARCKNLPGSYSCLCDEGFAYSSQEKACRDVDECLQGRCEQVCVNSPGSYTCHCDGRGGLKLSQDMDTCEDILPCVPFSVAKSVKSLYLGRMFSGTPVIRLRFKRLQPTRLVAEFDFRTFDPEGILLFAGGHQDSTWIVLALRAGRLELQLRYNGVGRVTSSGPVINHGMWQTISVEELARNLVIKVNRDAVMKIAVAGDLFQPERGLYHLNLTVGGIPFHEKDLVQPINPRLDGCMRSWNWLNGEDTTIQETVKVNTRMQCFSVTERGSFYPGSGFAFYSLDYMRTPLDVGTESTWEVEVVAHIRPAADTGVLFALWAPDLRAVPLSVALVDYHSTKKLKKQLVVLAVEHTALALMEIKVCDGQEHVVTVSLRDGEATLEVDGTRGQSEVSAAQLQERLAVLERHLRSPVLTFAGGLPDVPVTSAPVTAFYRGCMTLEVNRRLLDLDEAAYKHSDITAHSCPPVEPAAA
notes: Bought reagent; also called hGas6; Growth Arrest-Specific 6
Binder B1 has an EC50 (human AXL (full length) [1]) of 0.74 µg/mL, an EC50 (human AXL (full length) [2]) of 0.44 µg/mL and an EC50 (human AXL (full length) [3]) of 0.4 µg/mL. The EC50 (human AXL (full length) [4]) was 0.57 µg/mL, the EC50 (human AXL (full length) [5]) was 0.57 µg/mL and the EC50 (human AXL (full length) [6]) was 0.83 µg/mL. For the same binder, the “EC50 (read off the curve)” value (human AXL (full length) [7]) was ~0.1 µg/mL, the EC50 (human AXL (full length) [8]) was 5.53 µg/mL and the EC50 (human AXL (full length) [9]) was 0.69 µg/mL. The EC50 (human AXL (full length) [10]) was 0.78 µg/mL, the EC50 (human AXL (full length) [11]) was 0.77 µg/mL and the EC50 (human AXL (full length) [12]) was 0.73 µg/mL. For the same binder, the EC50 (human AXL (full length) [13]) was 0.4 µg/mL, the EC50 (human AXL (full length) [14]) was 5.53 µg/mL and the EC50 (human AXL (full length) [15]) was 0.78 µg/mL. The EC50 (human AXL (full length) [16]) was 0.34 µg/mL.
